{"source": "patent CN113735969A", "about": "(INST MILITARY MEDICINE ACADEMY MILITARY SCIENCES PLA, dated 2021)", "binders": {"B1": {"name": "全人源抗SARS-CoV-2单克隆抗体ZWD12 (antibody, V domains shown)", "VH": "EVQLVESGGGLVQPGGTLRLSCVASGFSFSNYWMSWVRQAPGKGLEWVANIKQDGSETHYVDSVKGRFTISRDNAKNSLYLQMNSLRADDTAVYFCVKDRTDWELIRGYFGHWGQGTQITVSS", "VL": "DIVMTQTPSSLSLSPGDRATLSCRASENIINYLAWYQQRPGQSPRLLIYDASNRATGIPARFSGSGSGTDFTLTISSLEPEDFAVYYCQQRIIWPPYTFGQGTKVDIKR"}}, "key": {"[1]": {"target": "SARS-CoV-2 WT RBD蛋白 (SARS-CoV-2, UniProt P0DTC2 319-541)"}, "[2]": {"target": "SARS-CoV-2野生型病毒的S蛋白 (SARS-CoV-2, UniProt P0DTC2 14-1273)", "assay": "cell-based or functional assay"}}, "data": [{"binder": "B1", "values": [{"measurement": "Kd", "setting": "[1]", "result": 356, "unit": "pM"}, {"measurement": "koff", "setting": "[1]", "result": 0.000167, "unit": "s⁻¹"}, {"measurement": "kon", "setting": "[1]", "result": 468000, "unit": "M⁻¹ s⁻¹"}, {"measurement": "假病毒中和 EC50 (luciferase, HEK293T cells)", "setting": "[2]", "result": 0.00586, "unit": "µg/mL"}, {"measurement": "真病毒中和 EC50 (Vero E6 cells, crystal violet)", "setting": "[2]", "result": 0.103, "unit": "µg/mL"}]}]}
